The target in assay [1] is T1, MBP-mCherry-ULK1(291–828) (human, UniProt O75385 291-828).
T1 construct: ULK1, human, intrinsically disordered region, residues 291-828 (no kinase domain, no EAT domain); also called mCherry-ULK1 ^ΔKDΔEAT (291–828); ULK1 IDR; source: purified (amylose resin); not shown: mCherry, N-terminal, kept
T1 sequence (looked up): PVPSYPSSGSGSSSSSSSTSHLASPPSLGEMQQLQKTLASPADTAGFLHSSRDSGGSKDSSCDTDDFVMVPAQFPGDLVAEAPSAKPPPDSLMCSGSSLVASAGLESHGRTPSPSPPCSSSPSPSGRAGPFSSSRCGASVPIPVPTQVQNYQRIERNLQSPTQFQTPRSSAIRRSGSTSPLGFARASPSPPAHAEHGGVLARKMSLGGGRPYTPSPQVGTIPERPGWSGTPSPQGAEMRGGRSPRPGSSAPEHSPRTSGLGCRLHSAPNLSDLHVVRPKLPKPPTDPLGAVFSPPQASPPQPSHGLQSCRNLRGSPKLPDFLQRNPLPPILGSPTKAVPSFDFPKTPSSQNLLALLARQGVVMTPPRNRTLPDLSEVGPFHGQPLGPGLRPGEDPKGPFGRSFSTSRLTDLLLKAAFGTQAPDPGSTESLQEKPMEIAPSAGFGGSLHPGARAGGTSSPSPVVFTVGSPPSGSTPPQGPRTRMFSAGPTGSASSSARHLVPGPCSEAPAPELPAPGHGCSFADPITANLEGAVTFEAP
As to the kind of experiment: pull-down; microscopy-based bead assay (Fig. S3): GST-ATG13(6–196)/ATG101 as bait on GSH beads; MBP-mCherry-ULK1 fragments added separately; mCherry on the beads imaged. Particulars: both partners purified.

For assay [2], the target named is T2, mcherry-ATG13(1–230)/TSF-ATG101 (human, UniProt O75143 1-230; Q9BSB4 1-218).
T2 construct: ATG13, human; ATG101, human, wild type; TSF-tagged proteins in general were purified on Strep-Tactin Sepharose; also called mCherry-ATG13^HD:TSF-ATG101; mCherry-ATG13^HD:ATG101; not shown: mCherry, N-terminal, kept
T2 sequence (looked up) 1: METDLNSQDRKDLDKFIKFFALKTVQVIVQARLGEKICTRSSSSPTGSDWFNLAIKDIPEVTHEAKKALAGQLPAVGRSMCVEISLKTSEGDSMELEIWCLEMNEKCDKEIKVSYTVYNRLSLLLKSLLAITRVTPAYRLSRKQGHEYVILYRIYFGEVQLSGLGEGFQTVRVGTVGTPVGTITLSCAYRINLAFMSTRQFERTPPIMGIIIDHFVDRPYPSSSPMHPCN
T2 sequence (looked up) 2: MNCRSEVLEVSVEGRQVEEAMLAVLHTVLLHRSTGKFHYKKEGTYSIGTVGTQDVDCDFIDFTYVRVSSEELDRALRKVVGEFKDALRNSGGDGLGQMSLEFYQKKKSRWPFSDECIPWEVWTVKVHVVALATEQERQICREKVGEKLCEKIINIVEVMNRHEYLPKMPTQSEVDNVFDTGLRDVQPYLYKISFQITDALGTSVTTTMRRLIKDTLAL
As to the kind of experiment: pull-down; microscopy-based bead assay (Fig. 5e): GST-GFP-ULK1(415–464) (WT or ADA) as bait on GSH beads; mcherry-ATG13(1–230)/TSF-ATG101 as prey; mCherry channel quantified. Particulars: both partners purified.

B1: GST-ATG13(6–196)/ATG101 (complex, human)
chain 1: NSQDRKDLDKFIKFFALKTVQVIVQARLGEKICTRSSSSPTGSDWFNLAIKDIPEVTHEAKKALAGQLPAVGRSMCVEISLKTSEGDSMELEIWCLEMNEKCDKEIKVSYTVYNRLSLLLKSLLAITRVTPAYRLSRKQGHEYVILYRIYFGEVQLSGLGEGFQTVRVGTVGTPVGTITLSCAYRINLAFM
chain 2: MNCRSEVLEVSVEGRQVEEAMLAVLHTVLLHRSTGKFHYKKEGTYSIGTVGTQDVDCDFIDFTYVRVSSEELDRALRKVVGEFKDALRNSGGDGLGQMSLEFYQKKKSRWPFSDECIPWEVWTVKVHVVALATEQERQICREKVGEKLCEKIINIVEVMNRHEYLPKMPTQSEVDNVFDTGLRDVQPYLYKISFQITDALGTSVTTTMRRLIKDTLAL
notes: ATG101, human, wild type; no tag is named; also called GST-ATG13^HD:ATG101; ATG13^HD:ATG101; source: HEK293T-GNTI- cells, transfected (PEI), purified (GSH resin, S200 SEC); not shown: GST, N-terminal, kept
As to B1, the binding result in assay [1] was “binds”.

B2: GST-GFP-ULK1(415–464) (domain or fragment, human, UniProt O75385 415-464, looked up)
chain: SGRAGPFSSSRCGASVPIPVPTQVQNYQRIERNLQSPTQFQTPRSSAIRR
notes: ULK1, human, IDR fragment with the PVP motif, residues 415-464; GST-tagged proteins in general were purified on GSH resin; also called GST-tagged fragment of the ULK1 IDR encompassing residues 415–464; not shown: GST, N-terminal, kept; GFP, N-terminal, kept
Consider B2, for which the binding result in assay [2] is “binds”.

For the origin of these results see publication doi:10.1101/2025.11.07.687251, “Reconstitution of multistep recruitment of ULK1 to membranes in autophagy” (bioRxiv, 2025).
